Measured values from publication PMC5878720.

Molecular target: T1, IL-11Rα (human (endogenous in RA ST fibroblasts and HUVECs)) (UniProt Q14626)
T1 sequence: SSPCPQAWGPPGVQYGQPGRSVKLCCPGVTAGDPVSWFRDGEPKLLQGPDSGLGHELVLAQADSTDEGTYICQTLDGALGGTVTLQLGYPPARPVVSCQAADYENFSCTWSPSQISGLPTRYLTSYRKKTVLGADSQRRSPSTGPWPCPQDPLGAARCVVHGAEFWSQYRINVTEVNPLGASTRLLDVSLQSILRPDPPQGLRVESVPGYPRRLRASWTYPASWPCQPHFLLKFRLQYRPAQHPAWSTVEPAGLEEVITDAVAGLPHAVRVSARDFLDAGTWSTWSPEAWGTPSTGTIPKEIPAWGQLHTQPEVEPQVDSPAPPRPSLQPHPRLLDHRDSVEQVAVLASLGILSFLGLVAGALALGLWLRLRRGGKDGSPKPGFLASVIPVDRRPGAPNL

B1: IL-11 (ligand)
chain: PGPPPGPPRVSPDPRAELDSTVLLTRSLLADTRQLAAQLRDKFPADGDHNLDSLPTLAMSAGALGALQLPGVLTRLRADLLSYLRHVQWLRRAGGSSLKTLEPELGTLQARLDRLLRRLQLLMSRLALPQPPPDPPAPPLAPPSSAWGGIRAAHAILGGLHLTLDWAVRGLLLLKTRL
  HUVEC transwell migration, 24h, IL-11 1-100 ng/ml, fold over control: 3 to 15 fold
